Common to all, as to experiment: EMSA
The target in data set [1] is T1, VapB29;VapC29 (UniProt P9WJ37+P9WF79).
T1 sequence 1: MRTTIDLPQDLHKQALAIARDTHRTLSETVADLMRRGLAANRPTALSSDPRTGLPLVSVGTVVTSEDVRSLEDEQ
T1 sequence 2: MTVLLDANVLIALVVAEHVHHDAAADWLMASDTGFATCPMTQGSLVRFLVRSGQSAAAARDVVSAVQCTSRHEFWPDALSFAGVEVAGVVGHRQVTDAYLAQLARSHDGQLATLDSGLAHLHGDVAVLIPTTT

In the next data set the target is T2, VapB1;VapC1 (UniProt P0CW29+P9WFC1).
T2 sequence 1: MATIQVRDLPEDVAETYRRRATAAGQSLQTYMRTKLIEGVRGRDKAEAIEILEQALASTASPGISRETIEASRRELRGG
T2 sequence 2: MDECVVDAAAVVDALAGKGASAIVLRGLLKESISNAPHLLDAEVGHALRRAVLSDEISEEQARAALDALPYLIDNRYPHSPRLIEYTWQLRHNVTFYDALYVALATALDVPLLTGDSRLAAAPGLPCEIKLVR

For data set [2], the target named is T3, VapB29;VapC29 (Mycobacterium tuberculosis …, UniProt P9WJ37;P9WF79 1-75;1-133, |).
T3 sequence 1: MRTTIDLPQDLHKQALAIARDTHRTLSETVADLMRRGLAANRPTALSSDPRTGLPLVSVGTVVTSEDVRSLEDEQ
T3 sequence 2: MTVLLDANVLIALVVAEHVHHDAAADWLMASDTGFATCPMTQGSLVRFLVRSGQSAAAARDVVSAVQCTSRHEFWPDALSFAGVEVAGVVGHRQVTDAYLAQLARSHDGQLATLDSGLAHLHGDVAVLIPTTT
The note with it: protein: recombinant;recombinant; tags: ;C-terminal His; label: 3' DIG-ddUTP; blunt.

Take “CATGGGAATACGATACCAATGGCTTCCCACTCAGGTGCGGAAGTCGACTCACCGCCGTTACCACGACCCCGACGACCACACCGTCAGCTGCGGCGCGGCGTGGCGACTATTGGTCGCTAGTGTCGTGCTCCCGATTCGGGTCCTTTGTATCTGATGACGT (double strand) [vapBC27 promoter 160 bp]”: in the data set with VapB29;VapC29 [1], the binding entry is recorded as “no binding”.
Take “GTGGATAAGCCGGCATTCTTAGCCGGTGAACTCCGCTATGGCTACCATTCAAGTTCGGGATTTGCCCGAAGATGTCGCCGAAACCTATCGACGGCGCGCCACCGCAGCGGGGCAGTCGCTGCAGACGTATATGCGCACCAAGCTCATCGA (double strand) [vapBC1 promoter 150 bp]”: the binding entry in the data set with VapB1;VapC1 and with VapB29;VapC29 [1] was “no binding” in each case.
Regarding “AGCGGAGTTCACCGGCTAAGAATGCCGGCTTATCCACCGGGCGTTTCGGCGGCATCGATGGCCTTCTCTAACCGGTCGAGCACCGCGCGCAGATCGGCCAG (double strand) [vapBC1 promoter 101 bp]”, the binding entry with VapB1;VapC1 is “no binding”.

B1: Oligo 5 (50 bp vapBC29 promoter, control) (dsDNA)
DNA 1: GGTGAGCGTCGGCGCGCGCATCACGATGCAGCGATGTTAGGATGAGGCGG
DNA 2: CCGCCTCATCCTAACATCGCTGCATCGTGATGCGCGCGCCGACGCTCACC
Regarding B1, the binding result with VapB29;VapC29 [2] is “binds”.

(Values after publication PMC6118392, “VapC proteins from Mycobacterium tuberculosis share ribonuclease sequence specificity but differ in regulation and toxicity” (PLoS ONE, 2018).)
